In PMC5943350:

Key:
[1] = target: human TNF-α (human) (UniProt P01375)
[2] = target: TNFRII-Trimer fusion protein (homotrimeric soluble human TNF receptor II fused to the Trimer-Tag, the C-propeptide of human α1(III) collagen) (human) (UniProt P20333); test: SEC + other: non-reducing SDS-PAGE; purified TNFRII-Trimer on 10% SDS-PAGE under non-reducing or reducing conditions (Coomassie; Western blot under non-reducing conditions too) and SEC-HPLC (Sepax Zenix-C SEC-300, OD280), TNFRII-Fc as dimeric control

UniProt P01375, sequence (P01375 77-233): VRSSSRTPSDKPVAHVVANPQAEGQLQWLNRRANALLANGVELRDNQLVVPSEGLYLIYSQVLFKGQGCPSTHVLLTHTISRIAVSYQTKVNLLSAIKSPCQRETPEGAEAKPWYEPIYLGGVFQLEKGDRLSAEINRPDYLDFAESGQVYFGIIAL

| stoichiometry N [2] | Substance | IC50 of neutralisation of TNF-α (2.5 ng/mL)-induced cytotoxicity in L929 cells, MTT assay, molar basis [1] [nM] | IC50 of neutralisation of TNF-α (2.5 ng/mL)-induced cytotoxicity in L929 cells, MTT assay, weight basis [1] [µg/mL] |
| --- | --- | --- | --- |
|  | TNFRII-Fc (dimeric soluble human TNFRII receptor-Fc fusion) (from UniProt P20333 23-257) | 0.0986 | 0.0101 |
| 3 | TNFRII-Trimer fusion protein (homotrimeric soluble human TNF receptor II fused to the Trimer-Tag, the C-propeptide of human α1(III) collagen) (from UniProt P20333 23-256) |  |  |
